Experimental data taken from patent US20250066499A1 (SUNSHINE GUOJIAN PHARMACEUTICAL SHANGHAI, published 2025).
Changes are numbered by the printed parent chain.

Legend:
CD73-ND-P139A = molecular target: T1, CD73-ND-P139A (human, UniProt P21589 27-317); test: ELISA; decline multiple of EC50 against CD73-ND
T1 construct: Alanine mutant of CD73-ND
T1 sequence: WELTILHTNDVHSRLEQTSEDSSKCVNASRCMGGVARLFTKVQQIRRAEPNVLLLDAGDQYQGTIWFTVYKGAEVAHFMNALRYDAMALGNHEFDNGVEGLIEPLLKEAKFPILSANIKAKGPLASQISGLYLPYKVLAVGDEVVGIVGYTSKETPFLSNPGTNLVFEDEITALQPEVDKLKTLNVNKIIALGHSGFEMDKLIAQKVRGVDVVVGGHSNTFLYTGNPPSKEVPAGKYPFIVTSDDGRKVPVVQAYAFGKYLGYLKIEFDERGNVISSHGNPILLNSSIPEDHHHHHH
Experimental: (§1) The ELISA plates were coated with SA protein diluted to 1.5 μg/mL in coating buffer (50 mM carbonate coating buffer, pH 9.6) and incubated overnight at 4° C. The supernatant was discarded, and the plates were washed three times with PBST. Then, 5% skimmed milk powder prepared with PBS was added for blocking and the plates were incubated for 2 h at 37° C. After washing the plates once with PBST, CD73-biotin protein (prepared by biotinylating CD73-His protein according to the EZ-Link NHS-Biotin Reagent instructions) was diluted to 0.5 μg/mL and added at 100 μL/well for incubation at room temperature for 1 h. The plates were washed three times with PBST, and the prepared murine-derived monoclonal antibodies against human CD73 were serially diluted with 1% BSA buffer prepared with PBST and added to the ELISA plates at 100 μl/well. The plates were incubated at 37° C. for 1 h. After washing the plates three times with PBST, HRP-labeled goat anti-mouse IgG secondary antibody was added and the plates were incubated for 30 min at 37° C. After washing the plates three times with PBST, the residual droplets were patted dry on absorbent paper as much as possible. Then, 100 μl of TMB color developing solution was added to each well, and the plates were incubated in the dark at room temperature for 5 min for color development. Subsequently, 50 μl of 2M H₂SO₄ stop solution was added to each well to terminate the substrate reaction. The OD values were read at 450 nm using a multimode microplate reader to analyze the binding ability of the tested antibodies to the target antigen human CD73-His.
(§2) Referring to the experimental method in Example 3, the affinity of 48A11-HuV33 for various mutant proteins of CD73-ND was determined. The SA protein was diluted to 1 μg/mL for coating the ELISA plates, and the biotinylated CD73 protein (CD73-biotin) was used at a concentration of 0.1 μg/mL.

CD73-ND-his [1] = molecular target: T2, CD73-ND-his (human, UniProt P21589 27-317); test: ELISA; decline multiple of EC50 against CD73-ND
T2 construct: Biotinylated and captured on streptavidin in the ELISA
T2 sequence: T1 sequence with A139P
Experimental: as §1, §2

CD73-ND-V140A = molecular target: T3, CD73-ND-V140A (human, UniProt P21589 27-317); test: ELISA; decline multiple of EC50 against CD73-ND
T3 construct: Alanine mutant of CD73-ND
T3 sequence: T1 sequence with A139P, V140A
Experimental: as §1, §2

CD73-ND-D142A = molecular target: T4, CD73-ND-D142A (human, UniProt P21589 27-317); test: ELISA; decline multiple of EC50 against CD73-ND
T4 construct: Alanine mutant of CD73-ND
T4 sequence: T1 sequence with A139P, D142A
Experimental: as §1, §2

CD73-ND-T183A = molecular target: T5, CD73-ND-T183A (human, UniProt P21589 27-317); test: ELISA, biotinylated antigen on streptavidin plate
T5 construct: Alanine mutant of CD73-ND
T5 sequence: T1 sequence with A139P, T183A
Experimental: as §1, §2

CD73-ND-L181A = molecular target: T6, CD73-ND-L181A (human, UniProt P21589 27-317); test: ELISA, biotinylated antigen on streptavidin plate
T6 construct: Alanine mutant of CD73-ND
T6 sequence: T1 sequence with A139P, L181A
Experimental: as §1, §2

CD73-ND-his [2] = molecular target: T2, CD73-ND-his; test: ELISA, biotinylated antigen on streptavidin plate
Experimental: as §1, §2

B1: 48A11-HuV33 (antibody, human IgG4, V domains shown)
VH: QVQLVQSGAEVKKPGASVKVSCKASGYTFTSYWMHWVRQAPGQGLEWIGEINPSIGRTNYNEKFKSRVTLTRDTSTSTAYMELSSLRSEDTAVYYCARRVYGTMDYWGQGTLVTVSS
VL: DIQMTQSPSSLSASVGDRVTITCKASQDINSYLSWFQQKPGKSPKLLIYRANIWVDGVPSRFSGSGSGQDYTFTISSLQPEDIATYYCLQYDELYTFGQGTKVEIK
notes: Humanized
- Ratio(EC50) (CD73-ND-P139A): 24.4 fold
- Ratio(EC50) (CD73-ND-his [1]): 1 fold
- Ratio(EC50) (CD73-ND-V140A): 0.6 fold
- Ratio(EC50) (CD73-ND-D142A): 1.9 fold
- EC50 (CD73-ND-T183A): 159 pM
- EC50 (CD73-ND-L181A): 226 pM
- EC50 (CD73-ND-his [2]): 117 pM
